For series [1], the target named is T1, Factor Xa (UniProt P00742;P00742 P00742:41-179,P00742:235-488). The series is described as follows: EMSA; 37 C 1 h. The procedure: (§1) Specificity tests of the Th-RNA origami with two proteins (Factor IXa and Xa) involved in the coagulation cascade and one common protein (bovine serum albumin, BSA) were performed. To test specificity, the RNA origami was incubated with protein at 37° C. for one hour and characterized by native acrylamide gel electrophoresis. The non-aptamer presenting on RNA origami (2HF-RNA-NNNN) was not able to bind to all four proteins (FIG. 25). All seven designs of RNA origami with RNA thrombin aptamers (2HF-RNA-12NN, 1N2N, 2NN1, Fss12, 2HF-2211, 3HF-2NN1, and 4HF-2NN1) show the specificity binding with thrombin as results shown in FIGS. 26-28 and FIGS. 42-45).
T1 sequence (P00742 41-179, chain 1 of 2): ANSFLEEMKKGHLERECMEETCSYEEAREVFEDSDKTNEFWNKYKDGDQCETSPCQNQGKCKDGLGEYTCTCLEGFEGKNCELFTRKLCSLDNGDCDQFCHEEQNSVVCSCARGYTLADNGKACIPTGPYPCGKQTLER
T1 sequence (P00742 235-488, chain 2 of 2): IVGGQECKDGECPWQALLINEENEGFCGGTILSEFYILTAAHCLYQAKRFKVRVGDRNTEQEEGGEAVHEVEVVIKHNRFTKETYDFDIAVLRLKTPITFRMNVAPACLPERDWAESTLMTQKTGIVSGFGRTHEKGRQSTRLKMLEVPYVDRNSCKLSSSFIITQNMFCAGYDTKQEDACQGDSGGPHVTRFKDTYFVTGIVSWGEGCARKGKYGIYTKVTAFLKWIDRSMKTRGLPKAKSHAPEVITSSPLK
(§2) For specificity tests, heat-annealed RNA origami or DNA weave tile (5 pmol) was dissolved in 1× annealing buffer and incubated with protein (25 pmol) at 37° C. for 1 hr. The samples were tested by 6% native acrylamide gel electrophoresis in 1×TBE as running buffer at 150 V for 3 hr. The gels were stained with Ethidium bromide for nucleic acid staining and visualized under a UV lamp. Then, the gels were further stained with Coomassie blue for protein staining and imaged with the ProteinSimple instrument.

Series [2] addresses T2, Factor IXa (UniProt P00740;P00740 P00740:47-191,P00740:227-461). As to the kind of experiment: EMSA; 37 C 1 h. The procedure:
as §1, §2

The target of series [3] is T3, Bovine serum albumin (BSA) (Bos taurus, UniProt P02769 P02769:25-607). The series is described as follows: EMSA; 37 C 1 h. The procedure: as §1, §2
T3 sequence (P02769 25-607, one chain of several): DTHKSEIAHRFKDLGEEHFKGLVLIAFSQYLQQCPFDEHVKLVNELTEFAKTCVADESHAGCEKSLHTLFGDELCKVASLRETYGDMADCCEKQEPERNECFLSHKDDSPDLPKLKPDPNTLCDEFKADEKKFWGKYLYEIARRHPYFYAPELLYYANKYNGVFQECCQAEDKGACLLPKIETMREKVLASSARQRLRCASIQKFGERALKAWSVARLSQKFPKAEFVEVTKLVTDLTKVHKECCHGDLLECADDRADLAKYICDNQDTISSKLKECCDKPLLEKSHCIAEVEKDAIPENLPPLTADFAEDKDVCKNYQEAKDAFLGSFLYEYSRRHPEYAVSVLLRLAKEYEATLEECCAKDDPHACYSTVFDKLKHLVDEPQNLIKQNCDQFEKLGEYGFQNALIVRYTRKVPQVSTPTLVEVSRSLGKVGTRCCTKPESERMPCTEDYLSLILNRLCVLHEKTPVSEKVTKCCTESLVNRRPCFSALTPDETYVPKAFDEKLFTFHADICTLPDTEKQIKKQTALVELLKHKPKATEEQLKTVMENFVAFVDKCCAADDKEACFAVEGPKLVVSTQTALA
The target of series [4] is T4, Thrombin (UniProt P00734;P00734 P00734:328-363,P00734:364-622). As to the kind of experiment: EMSA; 5 pmol RNA + 25 pmol protein, 37 C 1 h.
Series [5] has as its target T1, Factor Xa. As to the kind of experiment: EMSA; 5 pmol RNA + 25 pmol protein, 37 C 1 h. The conditions noted are these: 2-helix RNA origami with tetraloops and 180 degree kissing loop, no aptamer. As for the experimental part:
as §1, §2

Series [6] addresses T2, Factor IXa. As to the kind of experiment: EMSA; 5 pmol RNA + 25 pmol protein, 37 C 1 h. Conditions: 2-helix RNA origami with tetraloops and 180 degree kissing loop, no aptamer. The procedure:
as §1, §2

Series [7] concerns the target T3, Bovine serum albumin (BSA). The series is described as follows: EMSA; 5 pmol RNA + 25 pmol protein, 37 C 1 h. Conditions: 2-helix RNA origami with tetraloops and 180 degree kissing loop, no aptamer. The procedure: as §1, §2
Series [8] concerns the target T4, Thrombin. As to the kind of experiment: EMSA; 5 pmol RNA + 25 pmol protein, 1x annealing buffer, 37 C 1 h, 6% native PAGE.
Where [9] appears, read: 2-helix RNA origami with exosite 1 and exosite 2 aptamers.
[10] abbreviates: 2-helix RNA origami with exosite 1 aptamer (RNAR9D-14T) and exosite 2 aptamer (Toggle-25t).
Where [11] appears, read: two aptamers (exosite 2 and exosite 1) joined by 31 nt single-stranded linker.

From patent publication US20220025373, “COMPOSITIONS AND METHODS RELATED TO NUCLEIC ACID ANTICOAGULANTS” (North Carolina State University, published 2022) come the findings set out here.

T2 sequence (P00740 47-191, chain 1 of 2): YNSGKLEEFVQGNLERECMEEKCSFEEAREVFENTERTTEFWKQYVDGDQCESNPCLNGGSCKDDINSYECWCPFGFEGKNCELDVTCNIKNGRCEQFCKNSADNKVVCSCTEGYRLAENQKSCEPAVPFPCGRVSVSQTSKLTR
T2 sequence (P00740 227-461, chain 2 of 2): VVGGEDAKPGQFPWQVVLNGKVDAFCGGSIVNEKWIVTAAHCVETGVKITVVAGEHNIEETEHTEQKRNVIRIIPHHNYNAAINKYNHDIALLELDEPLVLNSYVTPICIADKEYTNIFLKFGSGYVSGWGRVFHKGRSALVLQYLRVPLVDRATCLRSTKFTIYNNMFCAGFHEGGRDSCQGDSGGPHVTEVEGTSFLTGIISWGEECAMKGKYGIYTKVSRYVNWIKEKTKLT

B1: 2HF-RNA-1N2N (ssRNA)
RNA: GGGAGAUCGAGCGACUUCCGACGGGAACAAAGCUGAAGUACUUACCCGUCGGGAGUCGGGCUAGUCAUCUUCGGAUGAUUAGCCGCUGGUGAAGCCUCCACGCCAGCCUCGGUCUCCCGCAGUAGGAUCGGACUGAAGGAGGCACGGUCCCAGCCGAAGUGUCUGGCGGUCGAUCACACAGUUCAAACGUAAUAAGCCAAUGUACGAGGCAGACGACUCGCCAGGCACUUUGGCUGCUAGACUGGCUGGCUUCGGCCAGCUAGUUUAGGAUUCUAUUGC
modifications: 2'-F at all C and U
In the case of B1, the binding result in series [1] (setting [9]) is recorded as “no binding”; in series [2] (setting [9]), “no binding”; in series [3] (setting [9]), “no binding”; in series [4], “binds”.

B2: 2HF-RNA-12NN (ssRNA)
RNA: GGGAGAUCGAGCGACUUCCGACUUCGGUCGGGAGUCGGGCUAGUCAUCGGGAACAAAGCUGAAGUACUUACCCGAUGAUUAGCCGCUGGUGAAGCCUCCACGCCAGCCUCGGUCUCCCGCAGUAGGAUCGGACUGAAGGAGGCACGGUCCCAGCCGAAGUGUCUGGCGGUCGAUCACACAGUUCAAACGUAAUAAGCCAAUGUACGAGGCAGACGACUCGCCAGGCACUUUGGCUGCUAGACUGGCUGGCUUCGGCCAGCUAGUUUAGGAUUCUAUUGC
modifications: 2'-F at all C and U
Regarding B2, the binding result in series [1] (setting [10]) is “no binding”; in series [2] (setting [10]), “no binding”; in series [3] (setting [10]) it was “no binding”; in series [4], “binds”.

B3: 2HF-RNA-2NN1 (ssRNA)
RNA: GGGAGAUCGAGCGACUUCCGACUUCGGUCGGGAGUCGGGCUAGUCAUCUUCGGAUGAUUAGCCGCUGGUGAAGCCUCCACGCCAGCCUCGGUCUCCCGCAGUAGGAUCGGACUGAAGGAGGCACGGUCCCAGCCGAAGUGUCUUGCGGGAACAAAGCUGAAGUACUUACCCGCAAGGCACUUUGGCUGCUAGACUGGCUGGCGGCGGUCGAUCACACAGUUCAAACGUAAUAAGCCAAUGUACGAGGCAGACGACUCGCCGCCAGCUAGUUUAGGAUUCUAUUGC
modifications: 2'-F at all C and U
For B3, the binding result in series [1] (setting [9]) is recorded as “no binding”; in series [2] (setting [9]), “no binding”; in series [3] (setting [9]), “no binding”; in series [4], “binds”.

B4: Fss12 (ssRNA)
RNA: GGGAACAAAGCUGAAGUACUUACCCACCUUACCACUCCACCUCACUCACCUAUUACGGCGGUCGAUCACACAGUUCAAACGUAAUAAGCCAAUGUACGAGGCAGACGACUCGCC
modifications: 2'-F at all C and U
In the case of B4, the binding result was “no binding” in series [1] (setting [11]), “no binding” in series [2] (setting [11]), “no binding” in series [3] (setting [11]) and “binds” in series [4].

B5: 2HF-RNA-NNNN (ssRNA)
RNA: GGGAGAUCGAGCGACUUCCGACUUCGGUCGGGAGUCGGGCUAGUCAUCUUCGGAUGAUUAGCCGCUGGUGAAGCCUCCACGCCAGCCUCGGUCUCCCGCAGUAGGAUCGGACUGAAGGAGGCACGGUCCCAGCCGAAGUGUCUUGCUUCGGCAAGGCACUUUGGCUGCUAGACUGGCUGGCUUCGGCCAGCUAGUUUAGGAUUCUAUUGC
modifications: 2'-F at all C and U
For the molecule B5, the binding result in series [5], in series [6], in series [7] and in series [8] was “no binding” each time.
